# Test: soluble on expression in E. coli; label from the status in PepcDB or PDB records
row,Sequence,soluble on expression in E. coli
1,MLRLATPLRSGLLSSAIRRHSACCGGEHKMSEAELKMSKLLTEGIDGCTRVEVHDVSNGCGSMFDVVVEAAGFKGKSKVAQHKQVTSILREQIKDMHGLTIKTKAA,not soluble
2,MGIHLFWDSRVPVGLSRPVSEELSAVLEMPVSRIDDGIFPLEGFDPVRNQYDAVKVLLKLDMFRRRMPQIFKPADMDLEFYNKFNHLHEKILLVTPGDLYEPLADFVFGLAYPKLGVAIVSPHRLQNEFYGKYADDSALIDRIVKEGAHEIGHLFGLGHCDNPGCIMYCPRNLDELDRKRKYFCGKCRVQLNGDTLEDDLFSLEHHHHHH,soluble
3,MGSDKIHHHHHHMEFSPPLQRATLIQRYKRFLADVITPDGRELTLHCPNTGAMTGCATPGDTVWYSTSDNTKRKYPHTWELTQSQSGAFICVNTLWANRLTKEAILNESISELSGYSSLKSEVKYGSERSRIDFMLQADSRPDCYIEVKSVTLAENEQGYFPDAVTERGQKHLRELMSVAAEGQRAVIFFAVLHSAITRFSPARHIDEKYAQLLSEAQQRGVEILAYKAEISAEGMALKKSLPVTL,not soluble
4,MSYLVVTIKVILITGMPGSGKSEFAKLLKERGAKVIVMSDVVRKRYSIEAKPGERLMDFAKRLREIYGDGVVARLCVEELGTSNHDLVVFDGVRSLAEVEEFKRLLGDSVYIVAVHSPPKIRYKRMIERLRSDDSKEISELIRRDREELKLGIGEVIAMADYIITNDSNYEEFKRRCEEVTDRVLKNG,not soluble
5,MSLEHILLPLDLSEVSKPLAISVAELASRHKSRVTLLHVIEEAMVIHVAAGYDVSSLIRSIEKNAREKLDKIKKLMMEKGANVVVYEDIPVGNPGTVISEVAEEVGATEIVMGSKGLGIFRILPLGSTVRETVKISRKPVIRLKTYKENGHVKVAYSPMLFRKILVGADRNTSKSMIDYAVNAASTDDGKVILAHIIEPPLEEPSYEVKNVFKYGEKAGEERGVEVEIVVARGRPDKMLTAIASQMDASSVLVGRTVERRLSELILGSTLDRLMTLCELPLIVYPLEGHHHHHH,soluble
6,MGSDKIHHHHHHMDSKSNSELARLEQAARAAWLYYVAKNTQDEIAQKLEVSRQSAQRLVALAVSEGLIKVRLDHPIVKCMELGQQLTQAFNLLECEIVPSDPADDSSVHGLAQCGAGVLERYLKSEQPKTLAFGTGRALKACIDELPSMQCPQHKIVSLLGNMMLDGSASAFDIVVSMANRVQAKHYPMPLPVIATSVAEKQLLHDLAPVKSIFELVIQADATFVGIGHMGAESPLLLDGFINQSQLTELINDNATGEIISWVYNQQGQLLDHSINELVMSSPLRIDSNKPVYGIAAGQHKVDAIFSALQGRLINSLITNEYTAERILAKLK,not soluble
7,SSWWTHVEMGPPDPILGVTEAFKRDTNSKKMNLGVGAYRDDNGKPYVLPSVRKAEAQIAAKNLDKEYLPIGGLAEFCKASAELALGENNEVLKSGRFVTVQTISGTGALRVGASFLQRFFKFSRDVFLPKPSWGNHTPIFRDAGMQLQGYRYYDPKTCGFDFSGALEDISKIPEQSVLLLHACAHNPTGVDPRPEQWKEIASVVKKKNLFAFFDMAYQGFASGDGDKDAWAVRHFIEQGINVCLCQSYAKNMGLYGERVGAFTVVCKDAEEAKRVESQLKILIRPLYSNPPLNGARIAATILTSPDLRKQWLQEVKGMADRIISMRTQLVSNLKKEGSSHNWQHITDQIGMFCFTGLKPEQVERLTKEFSVYMTKDGRISVAGVTSGNVGYLAHAIHQVTK,soluble
8,MKTIHIRELADWLDGALQAARFKDYCPNGLQVEGKAEIAHIITGVTASEALLRAAIERGADAVLVHHGWFWRNEDRRVLGPRRTRLALALGHELNLLAYHLPLDAHPQWGNNAQLARVLGLQAETGPDGAPRTCGADNLVWLGSAPGVQTVAQLQQRVAERLGRTPLVVGEPDRPVRRVAWCTGGAQGMLADAVDAGADAYITGEASESTVHLARETGVAFVGAGHHATERYGVQALGEAVARQFGIRVEFIDIDNPVLEHHHHHH,not soluble
9,MGGVSDERLDLVNERDEVVGQILRTDPALRWERVRVVNAFLRNSQGQLWIPRRSPSKSLFPNALDVSVGGAVQSGETYEEAFRREAREELNVEIDALSWRPLASFSPFQTTLSSFMCVYELRSDATPIFNPNDISGGEWLTPEHLLARIAAGEAAKGDLAELVRRCYREEE,soluble
10,MGSDKIHHHHHHLIKNILIMAANGQISRLIENQILNDDQFANVHLTLFLRHQSRLAQLAKNPRVTLIEGSLDRLDDVKKAMVDQDLVFIGVVDHSKGSQQTQNVIAGMKAGHVQRVIYTNVLGIYDEVPGTFGKWNKATIGNGLPSALKSDQLLEQSGLDYTTLRLPWLNDRDVKYQLTHKDETYVGVSGSRKSVADVVLKIIADPDYLKNDSVGIADPDTAGSDRLVY,not soluble
11,MAASLRLLGAASGLRYWSRRLRPAAGSFAAVCSRSVASKTPVGFIGLGNMGNPMAKNLMKHGYPLIIYDVFPDACKEFQDAGEQVVSSPADVAEKADRIITMLPTSINAIEAYSGANGILKKVKKGSLLIDSSTIDPAVSKELAKEVEKMGAVFMDAPVSGGVGAARSGNLTFMVGGVEDEFAAAQELLGCMGSNVVYCGAVGTGQAAKICNNMLLAISMIGTAEAMNLGIRLGLDPKLLAKILNMSSGRCWSSDTYNPVPGVMDGVPSANNYQGGFGTTLMAKDLGLAQDSATSTKSPILLGSLAHQIYRMMCAKGYSKKDFSSVFQFLREEETF,soluble
12,MDSPIINEQFWDALFFNGTMPWDRSQTPNELKHYLKRIADKTHSVFIPGCGAAYEVSHFVDCGHDVIAMDYSAEAVNLAKSQLGQHQDKVMLGDVFNADFSREFDVIYERAFLAALPREIWGDYFAMIERLLPSNGLLVGYFVISDDYRSRFPPFCLRSGEIEQKLEANFHLIESTPVTDSVDVFKGKEQWMVWQKLEHHHHHH,not soluble
13,MKILYIILFIQIGWIFPLSAQKQDSIYIGTRHTLFSEILNEERKYWIYVPETKAGEKGKAYPVLYLLDGDSFFHSVVGFTRFFSSSKTSNLPPCIVVAVLNTDRTRDFTPTCSAARRDGTICPYDKPAGGGAEQFHRFLIEELRLEVENKVPANGTNFLVGHSYAGLFTLQTLSNHPESFDSYIAIDPSLWWDRGVFLQQAAKNVYQKDFSGKHLYVAFATRQRPAIKLIQFSLADSLKNKIIPEMKNKHLHVVYKKFPDEVHGTIALPAIFDGLKSLFHNTISTKEAT,not soluble
14,KDADHIHHLIDQSLIAKGFQEILTNSLTKGAYNELLSKQEDAVPILNKLSEELAFMRPSLAFTGLETVAYNINRRQKNLKLFEWGKVYFKRGTKYNEYNRLSVFITGNQHAESWNTPSKTVDFFDMKAVVVQILEKLHIAVTQVQEIESNPLFSKGVIYKHAGKELVQFGYISQAALKATDVKQEVLFADFNADLLLELYSNKSKYKEIS,not soluble
15,GSDELKWNKGYSLPNLLEVTDQQKELSQWTLGDKVKLEEGRFVLTPGKNTKGSLWLKPEYSIKDAMTIEWTFRSFGFRGSTKGGLAFWLKQGNEGDSTELFGGSSKKFNGLMILLRLDDKLGESVTAYLNDGTKDLDIESSPYFASCLFQYQDSMVPSTLRLTYNPLDNHLLKLQMDNRVCFQTRKVKFMGSSPFRIGTSAINDASKESFEILKMKLYDGVIEDSL,soluble
16,GTGGAAATTYGAACAGGTGAATTTGAAGATATTGCGGGCATTACCGACATCTTTAACTTTTATATTGAACAAACCAATGCACGCTTTGAGGAATTTCCATTTACTCTGGAAAATCGTGAGGAATGGTTCTCTCAGTTTTCTAGAACCGCCAAATATCAAATATATGTGGCTGTAGAAAACGGTGTGTTGCAAGGTTTTGCATGTTCCCAAAAGTACAGAGCAATACCAGCTTTTGATGACACTGTAGAGGTGAGCGTTTATCTGGCACAAGAAGCTAAAGGGAAAGGTTTAGGTTCGAAGCTTTATACTCAGCTGTTTTCATCCATTCGTGCTTATGGCGTCCATCGTATATTGTCGGGTGTTGCATTACCAAATGACGCATCAGTAGCATTACATAAACGGTTTGGTTTCCGAGAAGTCGGCATTTCCAACGAATATGCCAAGAAACATGGGCAGTACATCAGCTCGTTGTGGTTAGAAAAAGCGCTTAACGTAGAGTCCGCTTTATAA,not soluble
17,MGSDKIHHHHHHMGKVADTLKPGDRVLLSFEDESEFLVDLEKDKKLHTHLGIIDLNEVFEKGPGEIIRTSAGKKGYILIPSLIDEIMNMKRRTQIVYPKDSSFIAMMLDVKEGDRIIDTGVGSGAMCAVLARAVGSSGKVFAYEKREEFAKLAESNLTKWGLIERVTIKVRDISEGFDEKDVDALFLDVPDPWNYIDKCWEALKGGGRFATVCPTTNQVQETLKKLQELPFIRIEVWESLFRPYKPVPERLRPVDRMVAHTAYMIFATKVCRREETE,not soluble
18,AEICLITGTPGSGKTLKMVSMMANDEMFKPDENGIRRKVFTNIKGLKIPHTYIETDAKKLPKSTDEQLSAHDMYEWIKKPENIGSIVIVDEAQDVWPARSAGSKIPENVQWLNTHRHQGIDIFVLTQGPKLLDQNLRTLVRKHYHIASNKMGMRTLLEWKICADDPVKMASSAFSSIYTLDKKVYDLYESAEVHTVNKVKRSK,not soluble
19,LYAFFKTMPKGGELHYHLAGGAYPETMLALAANGNYCLDKHTFAVSKDSSHCEGVNVKEVFNNPELYSNIIKDWSMKDFIPGKESGHDHFFNGFIKYMPIVFDYQPQLLADIVQRAAQQKAQYLEIMTIPDNAQSLTYGDLIKDIPSYDQKRRLLLANKDFQSNIQNTVLESDRILTKASQELRCNENPASDSCHVKIKFLYYVLREQPVDNVFAQALNAFEAVSKSKGNLIGVNLVQPEDGIISLRDYQKHMSIFEYLHRIYPNVPITLHAGELSPQAVTPENLSHHIRDALLIGHAQRIGHGVDIGYENNAEDTLKYMANHHIPVEINLISNLKILDISGSNHPLNYYLSHNVPVVLSTDDEGVLRTDLTQQYVEAAKEHGLSYQQLKQINRNTLTYSFLPGKSIWANADKAELVPDCHDLGSKSCQKFIAHNEKAKLQWNLEQQLIAFEKS,not soluble
20,MADVADPEVESRPQRFPKNIMITGANRGIGFGLVKHFLEYDGIELLIATCRNPEKADELNALKNDRRLHVIALNVDDDESIKKVFDEVSSLVSSNGLNMLINNAGILLPYEVDGPKICRKTMMKQLETNSVSVAILTQIFLPLIKTAASAAEGDEASIDRASIINISSTMASIEMNNGCFDGPMTAYRMSKSALNAFARQSFMELSKYHILVTSFCPGWVRTDMGGDNADLDVNESTKTLSANILRLDNRNNGLYFDRFLHPIPN,not soluble
21,MKAIAGLTVNIKQGEFVYVVGPSGAGKSTFIKMMYREEKPSTGSINVNGLVIETLAERDVPYFRRQLGVIFQDFKLLPKLTVYENVAFALEVIEEEPDAIRERVTEVLGLVGLEDRADALPSELSGGEQQRVAIARAIVNKPKVVIADEPTGNLDIETALDIMKIFTRINERGTTIVMATHNADIVNTIRHRVIAIEGGKIVRDEIEGGYGYEG,not soluble
22,MRVLFIGDVFGQPGRRVLQNHLPTIRPQFDFVIVNMENSAGGFGMHRDAARGALEAGAGCLTLGNHAWHHKDIYPMLSEDTYPIVRPLNYADPGTPGVGWRTFDVNGEKLTVVNLLGRVFMEAVDNPFRTMDALLERDDLGTVFVDFHAEATSEKEAMGWHLAGRVAAVIGTHTHVPTADTRILKGGTAYQTDAGFTGPHDSIIGSAIEGPLQRFLTERPHRYGVAEGRAELNGVALHFEGGKATAAERYRFIED,soluble

# Source: the DeepSol protein solubility set
